Test results reported in IntAct's records for PubMed 17588514.

B1: Replication restart protein PriB (Escherichia coli (strain K12)), P07013 (parent)
chain: MTNRLVLSGTVCRAPLRKVSPSGIPHCQFVLEHRSVQEEAGFHRQAWCQMPVIVSGHENQAITHSITVGSRITVQGFISCHKAKNGLSKMVLHAEQIELIDSGD
partner: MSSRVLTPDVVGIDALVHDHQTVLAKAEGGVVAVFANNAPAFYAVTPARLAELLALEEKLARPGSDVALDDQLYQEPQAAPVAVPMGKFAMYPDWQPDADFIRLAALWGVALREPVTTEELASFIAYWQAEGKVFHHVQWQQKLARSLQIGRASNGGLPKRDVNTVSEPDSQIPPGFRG

Variants of: B1
Conditions: with dnat_ecoli dnaT

| effect of a mutation on the interaction | Variant |
| --- | --- |
| increasing interaction | Q45A |
| decreasing interaction | W47A;K82A |
